In the supplement of paper PMC12636428:

system: Saccharomyces cerevisiae; assay: transcriptional activation domain activity (GFP:mCherry ratio, weighted mean of sorted bins, harmonized to initial dataset scale) (arbitrary fluorescence ratio units); higher = stronger transcriptional activation; settings: beta-estradiol 1 µM; induction time 4 h
Description: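 53-aa protein tiles (fungal proteins plus yeast TF control tiles) fused C-terminally to a DBD-estrogen-binding domain-mCherry synthetic TF, integrated in S. cerevisiae (URA3 locus) with a GFP reporter. Cells were induced with 1 uM beta-estradiol for 4 h at 30 C, FACS-sorted into 8 bins by GFP:mCherry ratio and barcodes sequenced. Activity is the read-weighted mean bin fluorescence (GFP:mCherry), averaged over barcodes (median 12); tiles under 50 reads were discarded. New active-learning values were harmonized by linear fit onto the scale of the initial (Hummel et al.) dataset. The assay saturates at low and high signal.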

Sequence	transcriptional activation domain activity
DNDDDGETAAGGRLAHLLQILVCNAIYSFEPLLNCSQDVNNVLVVVTRYYGGI	57500
DNDYNLDDTNNDNTNSMQSILEDFVSSEEALKFMPDAGRDARRYSEVVTSSFP	89300
DNESDAEPQQEKSKSQSRRRQSRGRGRRGADSGAESDARSDVSQSGGRRNRQR	44200
DNLDLASLDPLEQSPSISMEPVSINETGSAYTTTNTALNDIDIPFSINELNEL	64900
DNLLGMDYYNIDDLLTQELRDLDIPLVPSPKTGDGSSDKKNIDRTWNLGDENN	79900
DNMDSDFLSRTPNYNAFSLEATSHNPADNANELGSQSNRETNSPSVFYPQANT	22500
DNMHVPGRFKDPNFLFYIQTMISSYALPFVRKAAILMHVRYGVELPSIPFECV	75400
DNMSLLNLPILEETVSSGQDDKVEPDEEDIWNYLPSSSSQQEDSSRALKKNTN	20900
DNPEQLMKVFLSRNLISTGVIYSEHKCNMMVRLVWLFLCFLHRKSVLPEIRGL	59500
DNPSFLPLDIEQSSYDLSEDAMSYPIISTQSNRDCTQYDNTKISQILQSQLNP	63900
DNTPVLQEYLAVFRHLLSFHDPELSSHLDTIGFMPDLYAIPWFLTLFTHVFPL	64500
DNYILNNENDDGLDNLLGMDYYNIDDLLTQELRDLDIPLVPSPKTGDGSSDKK	109000
DPDASSFSGTVLDKAGSIARLSEDEQGGERAAKRRRLNKKVGMEAIAGLVGEY	40800
DPEEVQGGKQRAEGNQGGGGRQGRRGPRGAEGQDHPGVQRPHRRPRRGHQAHL	33200
DPFVEQNNDITTALLNNELFQGPSLSDEVTDWFGASEDIGLEFVEPWTELIEQ	144000
DPIRYLSTMDLGYCVGDKIIGSVLCYKQPIVLLILMYFTDQILFFLDTYLWYI	40600
DPNSPLDGDVDELRSREIAAKAVTGTLILLLKWLKLSHVLKFEYVTQLLLDLN	57100
DPPKRGRGRPKGSKNKKSTGVAAAAPAPAAGPSTGEKRKRGRPPKPKPEGEAG	43800
DPPPHPSCPPGSLIIKMVVYLRRRRLLVTWCEDPSVPEVRCLVVATQSQWVPM	55300
DPQTLSVAHRSYLRCLTQRLLLTQPTFTECMYNLLIHTDHLVALIHRLDGVWS	38400
DPTKSVSAYWVPGGDYISPALQILMNEYLLSFCPTITLPQSLILVSKYFGFLL	60700
DPTSRAPTAVRVRVKHSSGEEQEEEERLPADGVVICAGPWTGRVARRLLGEKV	37200
DPYDWSTYSNLIDEERIFVPEVQSSDHINDKFLTVANVTGEGSEGLIMQWLSC	133000
DQCDITPEMRKEYNIDGADKANNPELAMDWLLVHLLFRTLQLLPNMFRAWLFN	56200
DQDAVMEDAPEANAETESQNSRRRRSRGKGRKSGASMAENVKVEQQAEAGSEN	29300
DQGLTDCGDVRHTKVVSLSYHFSPDYNDPTIIPVVTRWCTEIGKLTLTGITFV	62400
DQIYIYQTPRWLCYECLVAMFTMFTIRLVYFWSLHVLNHLLTYKTFLFFFLSC	47400

Sequence	transcriptional activation domain activity
DQKLPNPDDFANFEARIKLLSYDDRLSFYQRYCLKINMQVYYYVLSYILMLTS	53300
DQKPIIDQKPLALLLEKLTVSEPPRGGTLGPAWMRERLEASGQMALWKRIVEK	34100
DQPLNEILGFLLSWLLMFDHFNEITFKLKQEYTTQLKDGDLISLLLPVLFNIL	41100
DQSEISRTTSRSDTPLRDEDGLDFWETLRSLATTNPNPPVEKSAENDGAKPQV	41100
DQTICAEVMRCCESNVVAFRRLVHMIQIQLRNIGIMADIRLVRNLVLVLHGAL	62000
DQVMKIKPVQKQTTAGQRTRFKAVVVVGDSNGHVGLGVKTAKEVATAIRAAII	72700
DRDRSRSRSRSRSKSPRRHRRSSRSPRRRGADKSPERAAPAASSKQAEARPRC	31100
DREAKEDGGDTGGGGGRDRGGEEEEDEEEEEEEEEDDGFIKKTKKDKKKKKKK	36100
DREHRSKHRRHSSDSRSRSHSHRERRKDKSKHREKEKDKDRKKRKKEKERRRD	36500
DREKRSSGHRNGRRHRGHRSGRKQRRSRSRSRGDRPDSPVRAKEGEGGAKDRK	< 6570
DRFQLKKFGGYQVEFINYDYGVLQDVMLFSLQRHVNCQEVGVKMLWTIIISEW	49000
DRHLDHGQLVYLLHSIVTCPRFQPMVRAIIVSRELPFFVQTWPWPYLSLLART	36100
DRLSLRFTLAISLTDVIRAIAILIYSHFQVDDWRCSLLSFSLYWLTLLYLFLT	25300
DRMRENGLLSLSDLREYFVCWWRFEKMYRTLIIAETWMDLQAYKVKTLAWLHG	63200
DRMYNQISQVFDHLYARQDRTWGRVAEDFRSVLLIRWYFDAASLWVTLWCRYT	48600
DRNYKRVAKQVGFTIDRKRGDDLRHFPIERARLEIIWPLLYTGLACILCYGWA	70900
DRNYKRVARQIGFTIDRKHGDDLRHFPIERARLELIWPLLGFGLSCYLCYGWV	49600
DRPRDRDSSRSRRDVSSSRRDRDGEDKESAGDRRDDRKPARDDRRTREDHRRE	28100
DRPRRDRADDKEATTPRSDAGSHKSRRRSRSRDDERRHSRRHRGGDGDFYRGG	17700
DRRYRISRGGSRMNQVVENTVSRWVGMLPTWRCGLLLHAFVHLKKVYWCPFLR	72700
DRSRATEEEDGKSTKRSRARSRTFTFSKSDKGGDGSPSKKVRSTSKSRAKHDG	31100
DSAMRAIYSFRNSYIAFILFNGSIYYYVARFFGFYHKVLDSPIVGFRWVDLHL	58300
DSAPTKRGRGRPKGSKNKNKSVASPSSPTSGAGSSAPRKRGRPPKAKPAESGA	38300
DSATPHGSPRRWTPSSKLSPSVAPSSPSSSTSTSSSPKARSRSHSRTCSTEVQ	42200
DSDEEDESELETDSESETGGIPIHESLSGAKSEDADKNERTIFIGNITVTAVQ	46400
DSDGDEEPGKKRQKTALSCGECKRRKIKCDRKVPCVSCIKRGEPEKCNWEEAR	30900
DSDSEEEEEGWQLSPHDVDKVRQMLEPDEVSLQRALQTTPAMRIGMIIWLVIT	53000

Sequence	transcriptional activation domain activity
DSDTRRRGGEGGHRMRSSIACTRCRRSKIKCENQGVGSQCKACHGQGRECTYP	31300
DSEADSEDDDNGAESDKKMPVADKSEHQTGILSKLYKLNVYGEGSFFKPHKDT	45700
DSEEERMRRRRAKSRDPERERERKASRSPEKKPARSKSRLGRLAAGAAAAGAA	50300
DSFDAPIQTLGDDQRACLKPGLWFAYKVRFCVTLKQYKVLWMCLVLLRHLRIK	48000
DSGGDRSTSPDSDRDKENKKASDKTEDSDKETQENGEEEKGGEKERESKKGEK	16700
DSGKQGFLFLVCLVFFVFFWGFACDLWLGLLLLFFFFPFLSFPLFSLPHYHGH	43900
DSHHHDELGSEITLADNKFSYLPPTLEELMEEQDCNNGRSFKNFMFSNDTGID	54500
DSHYILQGVDAAIQILKLCRVCLHPRAVLSYLPHSFYLYLCYAAVFLLKVVFV	61700
DSKDKREKFRSRMVVLKSRLLFGVCDPYGVLEEGEVYVRVSVPRMGASTLKNT	67500
DSKGFEARRANMGNDVELTGARAIVLVNIWNVQTSCGLSVPLVVQSNSGTECG	59400
DSKLLPGFASYLSFCLFLYAITTVLPFFSLDCPYSTPLTPLMCRLYHFFMFGI	66800
DSKLRATALQVRRGGNCPNTVEVLQQLLLSGGGLDTSSSQTQQVSAADAAAVT	33300
DSKSDATPAWSDLKTKAGKERKRLPLACIVCRRKKIRCSGEKPACKHCLRARI	41900
DSLFFDHDLLSSSITNTNNGQGSNNGRQASKDDTLNLLDTTVNSNNNHNANNE	32900
DSLSNSNDVLNNTPNSSTSMDWLDNVIYTNRFVSGDDGSNSKTKNLDSNMFSN	66900
DSNILAILPAVVYLQHSCYCLYFFYLYCFCLFLMSIDVAILYCLLYKIIPLFH	43400
DSNYLAFLKFDDLENEKFHSSASSISSPSYSSPSFSSYRNRKKSEFMDDESCT	73200
DSPVDRAMNTPLQQQEGLKAELPHDFLFQHGTDDTMYNLTDDLSSSLSSSINS	68200
DSRKEERRPSGHERKDRERGRDSRKDRDRKRKERLDDTASDDKKDRKRDRGEK	24700
DSRRKRNTSSEEDEPKKTDREERRREYRSRDHNVADEERSNKHRSSRRKHRSA	7300
DSSAETGPGEDPSLVLPGLHMTLMRRFALKSKDRDRVSVEILGLLIRVLGVLG	59800
DSSEEDSEDEKPKAVQVKAIAKASSSSDSDDSSSEDDAPSKSVVAAAKKVSPS	22200
DSSEVQRKKRRDSRKSKKESKSSSRRKDRSKDRSGRSKQRESKKKDRRRARSE	< 6570
DSSFDLNMNLDLNLNLDSNFNIALNRSDSSGSTMNLDYKLPESANNYTYSSGS	90700
DSSSSNDSDSGADDGAARPVRRSRARRKHKHNHEHDGNGGEGDAKDKARKPSP	28400
